This test deals with HIV-1 Gag-glutathione-S-transferase (GST) fusion protein, wild type (HIV-1). Briefly: cross-linking + pull-down.

B1: 2',3'-cyclic-nucleotide 3'-phosphodiesterase (CNP), human, wild type (natural protein)
chain: MNRGFSRKSHTFLPKIFFRKMSSSGAKDKPELQFPFLQDEDTVATLLECKTLFILRGLPGSGKSTLARVIVDKYRDGTKMVSADAYKITPGARGAFSEEYKRLDEDLAAYCRRRDIRILVLDDTNHERERLEQLFEMADQYQYQVVLVEPKTAWRLDCAQLKEKNQWQLSADDLKKLKPGLEKDFLPLYFGWFLTKKSSETLRKAGQVFLEELGNHKAFKKELRQFVPGDEPREKMDLVTYFGKRPPGVLHCTTKFCDYGKAPGAEEYAQQDVLKKSYSKAFTLTISALFVTPKTTGARVELSEQQLQLWPSDVDKLSPTDNLPRGSRAHITLGCAADVEAVQTGLDLLEILRQEKGGSRGEEVGELSRGKLYSLGNGRWMLTLAKNMEVRAIFTGYYGKGKPVPTQGSRKGGALQSCTII
With B1, the stoichiometry N (as a rule, the number of molecules, sites or subunits per partner or assembly) is 1 CNP:Gag-GST.

The values above are taken from PMC3498451.
